Measured values from patent US20210388087A1 (Chugai, published 2021).

What follows are binders tested against T1, Human CD137 ECD (human) (assay: single mutant vs template dBBDu183H).
T1 construct: also called 4-1BB
T1 sequence (chain, as listed by the source limits assumed): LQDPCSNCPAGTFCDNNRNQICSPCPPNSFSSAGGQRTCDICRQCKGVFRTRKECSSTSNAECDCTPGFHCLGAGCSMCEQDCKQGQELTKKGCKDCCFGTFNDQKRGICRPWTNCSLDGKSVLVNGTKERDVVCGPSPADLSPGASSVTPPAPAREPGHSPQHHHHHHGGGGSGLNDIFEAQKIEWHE

Row | Binder | fold change of affinity
1 | H183/L072 VH A56Q (antibody, name in Kabat numbering, V domains shown) VH: QVQLVESGGGLVQPGRSLRLSCAASGFTFSNAWMHWVRQAPGKGLEWVAQIKDKGNAYQAYYAPSVKGRFTISRDDSKNSIYLQMNSLKTEDTAVYYCHYVHYASASTVLPAFGVDAWGQGTTVTVSS VL: DIVMTQSPLSLPVTPGEPASISCQASQELVHMNRNTYLHWYQQKPGQAPRLLIYKVSNRFPGVPDRFSGSGSGTDFTLKISRVEAEDVGVYYCAQGTSVPFTFGQGTKLEIK | 0.8 fold
2 | H183/L072 VH A56S (antibody, name in Kabat numbering, V domains shown) VH: QVQLVESGGGLVQPGRSLRLSCAASGFTFSNAWMHWVRQAPGKGLEWVAQIKDKGNAYSAYYAPSVKGRFTISRDDSKNSIYLQMNSLKTEDTAVYYCHYVHYASASTVLPAFGVDAWGQGTTVTVSS VL: DIVMTQSPLSLPVTPGEPASISCQASQELVHMNRNTYLHWYQQKPGQAPRLLIYKVSNRFPGVPDRFSGSGSGTDFTLKISRVEAEDVGVYYCAQGTSVPFTFGQGTKLEIK | 0.7 fold
3 | H183/L072 VH A57K (antibody, name in Kabat numbering, V domains shown) VH: QVQLVESGGGLVQPGRSLRLSCAASGFTFSNAWMHWVRQAPGKGLEWVAQIKDKGNAYAKYYAPSVKGRFTISRDDSKNSIYLQMNSLKTEDTAVYYCHYVHYASASTVLPAFGVDAWGQGTTVTVSS VL: DIVMTQSPLSLPVTPGEPASISCQASQELVHMNRNTYLHWYQQKPGQAPRLLIYKVSNRFPGVPDRFSGSGSGTDFTLKISRVEAEDVGVYYCAQGTSVPFTFGQGTKLEIK | 0.9 fold
4 | H183/L072 VH A57M (antibody, name in Kabat numbering, V domains shown) VH: QVQLVESGGGLVQPGRSLRLSCAASGFTFSNAWMHWVRQAPGKGLEWVAQIKDKGNAYAMYYAPSVKGRFTISRDDSKNSIYLQMNSLKTEDTAVYYCHYVHYASASTVLPAFGVDAWGQGTTVTVSS VL: DIVMTQSPLSLPVTPGEPASISCQASQELVHMNRNTYLHWYQQKPGQAPRLLIYKVSNRFPGVPDRFSGSGSGTDFTLKISRVEAEDVGVYYCAQGTSVPFTFGQGTKLEIK | 0.7 fold
5 | H183/L072 VH A57T (antibody, name in Kabat numbering, V domains shown) VH: QVQLVESGGGLVQPGRSLRLSCAASGFTFSNAWMHWVRQAPGKGLEWVAQIKDKGNAYATYYAPSVKGRFTISRDDSKNSIYLQMNSLKTEDTAVYYCHYVHYASASTVLPAFGVDAWGQGTTVTVSS VL: DIVMTQSPLSLPVTPGEPASISCQASQELVHMNRNTYLHWYQQKPGQAPRLLIYKVSNRFPGVPDRFSGSGSGTDFTLKISRVEAEDVGVYYCAQGTSVPFTFGQGTKLEIK | 0.6 fold
6 | H183/L072 VH A57Q (antibody, name in Kabat numbering, V domains shown) VH: QVQLVESGGGLVQPGRSLRLSCAASGFTFSNAWMHWVRQAPGKGLEWVAQIKDKGNAYAQYYAPSVKGRFTISRDDSKNSIYLQMNSLKTEDTAVYYCHYVHYASASTVLPAFGVDAWGQGTTVTVSS VL: DIVMTQSPLSLPVTPGEPASISCQASQELVHMNRNTYLHWYQQKPGQAPRLLIYKVSNRFPGVPDRFSGSGSGTDFTLKISRVEAEDVGVYYCAQGTSVPFTFGQGTKLEIK | 0.9 fold
7 | H183/L072 VH A56R (antibody, name in Kabat numbering, V domains shown) VH: QVQLVESGGGLVQPGRSLRLSCAASGFTFSNAWMHWVRQAPGKGLEWVAQIKDKGNAYRAYYAPSVKGRFTISRDDSKNSIYLQMNSLKTEDTAVYYCHYVHYASASTVLPAFGVDAWGQGTTVTVSS VL: DIVMTQSPLSLPVTPGEPASISCQASQELVHMNRNTYLHWYQQKPGQAPRLLIYKVSNRFPGVPDRFSGSGSGTDFTLKISRVEAEDVGVYYCAQGTSVPFTFGQGTKLEIK | 0.8 fold
8 | H183/L072 VH A56T (antibody, name in Kabat numbering, V domains shown) VH: QVQLVESGGGLVQPGRSLRLSCAASGFTFSNAWMHWVRQAPGKGLEWVAQIKDKGNAYTAYYAPSVKGRFTISRDDSKNSIYLQMNSLKTEDTAVYYCHYVHYASASTVLPAFGVDAWGQGTTVTVSS VL: DIVMTQSPLSLPVTPGEPASISCQASQELVHMNRNTYLHWYQQKPGQAPRLLIYKVSNRFPGVPDRFSGSGSGTDFTLKISRVEAEDVGVYYCAQGTSVPFTFGQGTKLEIK | 0.4 fold
9 | H183/L072 VH A57F (antibody, name in Kabat numbering, V domains shown) VH: QVQLVESGGGLVQPGRSLRLSCAASGFTFSNAWMHWVRQAPGKGLEWVAQIKDKGNAYAFYYAPSVKGRFTISRDDSKNSIYLQMNSLKTEDTAVYYCHYVHYASASTVLPAFGVDAWGQGTTVTVSS VL: DIVMTQSPLSLPVTPGEPASISCQASQELVHMNRNTYLHWYQQKPGQAPRLLIYKVSNRFPGVPDRFSGSGSGTDFTLKISRVEAEDVGVYYCAQGTSVPFTFGQGTKLEIK | 0.1 fold
10 | H183/L072 VH A57E (antibody, name in Kabat numbering, V domains shown) VH: QVQLVESGGGLVQPGRSLRLSCAASGFTFSNAWMHWVRQAPGKGLEWVAQIKDKGNAYAEYYAPSVKGRFTISRDDSKNSIYLQMNSLKTEDTAVYYCHYVHYASASTVLPAFGVDAWGQGTTVTVSS VL: DIVMTQSPLSLPVTPGEPASISCQASQELVHMNRNTYLHWYQQKPGQAPRLLIYKVSNRFPGVPDRFSGSGSGTDFTLKISRVEAEDVGVYYCAQGTSVPFTFGQGTKLEIK | 0.9 fold
11 | H183/L072 VH A57G (antibody, name in Kabat numbering, V domains shown) VH: QVQLVESGGGLVQPGRSLRLSCAASGFTFSNAWMHWVRQAPGKGLEWVAQIKDKGNAYAGYYAPSVKGRFTISRDDSKNSIYLQMNSLKTEDTAVYYCHYVHYASASTVLPAFGVDAWGQGTTVTVSS VL: DIVMTQSPLSLPVTPGEPASISCQASQELVHMNRNTYLHWYQQKPGQAPRLLIYKVSNRFPGVPDRFSGSGSGTDFTLKISRVEAEDVGVYYCAQGTSVPFTFGQGTKLEIK | 0.9 fold
12 | H183/L072 VH A57R (antibody, name in Kabat numbering, V domains shown) VH: QVQLVESGGGLVQPGRSLRLSCAASGFTFSNAWMHWVRQAPGKGLEWVAQIKDKGNAYARYYAPSVKGRFTISRDDSKNSIYLQMNSLKTEDTAVYYCHYVHYASASTVLPAFGVDAWGQGTTVTVSS VL: DIVMTQSPLSLPVTPGEPASISCQASQELVHMNRNTYLHWYQQKPGQAPRLLIYKVSNRFPGVPDRFSGSGSGTDFTLKISRVEAEDVGVYYCAQGTSVPFTFGQGTKLEIK | 0.5 fold
13 | H183/L072 VH A56W (antibody, name in Kabat numbering, V domains shown) VH: QVQLVESGGGLVQPGRSLRLSCAASGFTFSNAWMHWVRQAPGKGLEWVAQIKDKGNAYWAYYAPSVKGRFTISRDDSKNSIYLQMNSLKTEDTAVYYCHYVHYASASTVLPAFGVDAWGQGTTVTVSS VL: DIVMTQSPLSLPVTPGEPASISCQASQELVHMNRNTYLHWYQQKPGQAPRLLIYKVSNRFPGVPDRFSGSGSGTDFTLKISRVEAEDVGVYYCAQGTSVPFTFGQGTKLEIK | 0.3 fold
14 | H183/L072 VH A57P (antibody, name in Kabat numbering, V domains shown) VH: QVQLVESGGGLVQPGRSLRLSCAASGFTFSNAWMHWVRQAPGKGLEWVAQIKDKGNAYAPYYAPSVKGRFTISRDDSKNSIYLQMNSLKTEDTAVYYCHYVHYASASTVLPAFGVDAWGQGTTVTVSS VL: DIVMTQSPLSLPVTPGEPASISCQASQELVHMNRNTYLHWYQQKPGQAPRLLIYKVSNRFPGVPDRFSGSGSGTDFTLKISRVEAEDVGVYYCAQGTSVPFTFGQGTKLEIK | 1 fold
15 | H183/L072 VH A57D (antibody, name in Kabat numbering, V domains shown) VH: QVQLVESGGGLVQPGRSLRLSCAASGFTFSNAWMHWVRQAPGKGLEWVAQIKDKGNAYADYYAPSVKGRFTISRDDSKNSIYLQMNSLKTEDTAVYYCHYVHYASASTVLPAFGVDAWGQGTTVTVSS VL: DIVMTQSPLSLPVTPGEPASISCQASQELVHMNRNTYLHWYQQKPGQAPRLLIYKVSNRFPGVPDRFSGSGSGTDFTLKISRVEAEDVGVYYCAQGTSVPFTFGQGTKLEIK | 1.2 fold
16 | H183/L072 VH A57N (antibody, name in Kabat numbering, V domains shown) VH: QVQLVESGGGLVQPGRSLRLSCAASGFTFSNAWMHWVRQAPGKGLEWVAQIKDKGNAYANYYAPSVKGRFTISRDDSKNSIYLQMNSLKTEDTAVYYCHYVHYASASTVLPAFGVDAWGQGTTVTVSS VL: DIVMTQSPLSLPVTPGEPASISCQASQELVHMNRNTYLHWYQQKPGQAPRLLIYKVSNRFPGVPDRFSGSGSGTDFTLKISRVEAEDVGVYYCAQGTSVPFTFGQGTKLEIK | 0.3 fold
17 | H183/L072 VH A56Y (antibody, name in Kabat numbering, V domains shown) VH: QVQLVESGGGLVQPGRSLRLSCAASGFTFSNAWMHWVRQAPGKGLEWVAQIKDKGNAYYAYYAPSVKGRFTISRDDSKNSIYLQMNSLKTEDTAVYYCHYVHYASASTVLPAFGVDAWGQGTTVTVSS VL: DIVMTQSPLSLPVTPGEPASISCQASQELVHMNRNTYLHWYQQKPGQAPRLLIYKVSNRFPGVPDRFSGSGSGTDFTLKISRVEAEDVGVYYCAQGTSVPFTFGQGTKLEIK | 0.3 fold
18 | H183/L072 VH A57I (antibody, name in Kabat numbering, V domains shown) VH: QVQLVESGGGLVQPGRSLRLSCAASGFTFSNAWMHWVRQAPGKGLEWVAQIKDKGNAYAIYYAPSVKGRFTISRDDSKNSIYLQMNSLKTEDTAVYYCHYVHYASASTVLPAFGVDAWGQGTTVTVSS VL: DIVMTQSPLSLPVTPGEPASISCQASQELVHMNRNTYLHWYQQKPGQAPRLLIYKVSNRFPGVPDRFSGSGSGTDFTLKISRVEAEDVGVYYCAQGTSVPFTFGQGTKLEIK | 0.1 fold
19 | H183/L072 VH A57H (antibody, name in Kabat numbering, V domains shown) VH: QVQLVESGGGLVQPGRSLRLSCAASGFTFSNAWMHWVRQAPGKGLEWVAQIKDKGNAYAHYYAPSVKGRFTISRDDSKNSIYLQMNSLKTEDTAVYYCHYVHYASASTVLPAFGVDAWGQGTTVTVSS VL: DIVMTQSPLSLPVTPGEPASISCQASQELVHMNRNTYLHWYQQKPGQAPRLLIYKVSNRFPGVPDRFSGSGSGTDFTLKISRVEAEDVGVYYCAQGTSVPFTFGQGTKLEIK | 0.5 fold
20 | H183/L072 VH A56V (antibody, name in Kabat numbering, V domains shown) VH: QVQLVESGGGLVQPGRSLRLSCAASGFTFSNAWMHWVRQAPGKGLEWVAQIKDKGNAYVAYYAPSVKGRFTISRDDSKNSIYLQMNSLKTEDTAVYYCHYVHYASASTVLPAFGVDAWGQGTTVTVSS VL: DIVMTQSPLSLPVTPGEPASISCQASQELVHMNRNTYLHWYQQKPGQAPRLLIYKVSNRFPGVPDRFSGSGSGTDFTLKISRVEAEDVGVYYCAQGTSVPFTFGQGTKLEIK | 0.2 fold
21 | H183/L072 VH A57S (antibody, name in Kabat numbering, V domains shown) VH: QVQLVESGGGLVQPGRSLRLSCAASGFTFSNAWMHWVRQAPGKGLEWVAQIKDKGNAYASYYAPSVKGRFTISRDDSKNSIYLQMNSLKTEDTAVYYCHYVHYASASTVLPAFGVDAWGQGTTVTVSS VL: DIVMTQSPLSLPVTPGEPASISCQASQELVHMNRNTYLHWYQQKPGQAPRLLIYKVSNRFPGVPDRFSGSGSGTDFTLKISRVEAEDVGVYYCAQGTSVPFTFGQGTKLEIK | 0.8 fold
